# Results published in publication PMC12170907 (2025).
# Molecular target: Superfolder-GFP-tagged M-HBsAg (serotype ayw, genotype D3) (Hepatitis B virus (serotype ayw, …))
# Assay: ELISA
binder,measurement,value
"3× HA-tagged FabHBC (Fab, V domains shown) VH: ELQLVESGGGWVQPGGSQRLSCAASGRIFRSFYMSWVRQAPGKGLEWVATINQDGSEKLYVDSVKGRFTISRDNAKNSLFLQMNNLRVEDTAVYYCAAWSGNSGGMDVWGQGTTVSVSS VL: SYELTQPPSVSVSPGQTVSIPCSGDKLGNKNVCWFQHKPGQSPVLVIYEVKYRPSGIPERFSGSNSGNTATLTISGTQAMDEAAYFCQTWDSTTVVFGGGTRLTVL",Kd,0.103 nM
